# Experimental data from the supplement of paper PMC7877785.
# ± gives the uncertainty stated by the source.
# Test: self-splicing fitness, log relative to wild type (ln ratio); higher = more splicing; Tetrahymena group I intron in knt gene, E. coli kanamycin selection, DiMSum; sequences stand for … in CUCUCU…GGAGGGAAAAGUUAUCAGGCAUGCACCUGGUAGCUAGUCUUUAAACCAAUAGAUUGCAUCGGUUUAAAAGGCAAGACCGUCAAAUUGCGGGAAAGGGGUCAACAGCCGUUCAGUACCAAGUCUCAGGGGAAACUUUGAGAUGGCCUUGCAAAGGGUAUGGUAAUAAGCUGACGGACAUGGUCCUAACCACGCAGCCAAGUCCUAAGUCAACAGAUCUUCUGUUGAUAUGGAUGCAGUUCACAGACUAAAUGUCGGUCGGGGAAGAUGUAUUCUUCUCAUAAGAUAUAGUCGGACCUCUCCUUAAUGGGAGCUAGCGGAUGAAGUGAUGCAACACUGGAGCCGCUGGGAACUAAUUUGUAUGCGAAAGUAUAUUGAUUAGUUUUGGAGUACUCGUGGUCG
# Summary of the method: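 Pooled colonies went to amplicon sequencing on an Illumina HiSeq 2500 after six replicate transformations. The plates were LB agar with 100 μg/mL carbenicillin, 50 μM IPTG and 0.2% rhamnose, with or without 25 μg/mL kanamycin, incubated overnight at 37°C or 30°C. The E. coli BL21(DE3) library had all eight P1ex-region intron nucleotides randomised, the intron placed in the knt kanamycin-resistance gene on pET-22b(+). DiMSum fitness is the error-weighted combination of replicate fold changes, kanamycin against none, normalised to wild type.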
Sequence,self-splicing fitness (ln) (30 °C),self-splicing fitness (ln) (37 °C)
UCGUAGCAAUAUUACGUGCU,-2.98 ± 0.26,-2.83 ± 0.48
GAAGAGCAAUAUUACGGGGU,-3.09 ± 0.34,-1.83 ± 0.28
UACAAGCAAUAUUACGUAGG,-4 ± 0.26,-2.78 ± 0.27
UAGGAGCAAUAUUACGUAGA,-1.5 ± 0.2,-1.06 ± 0.16
GAGCAGCAAUAUUACGACCC,0.0587 ± 0.081,-0.0685 ± 0.098
GCGUAGCAAUAUUACGUUUC,-4.29 ± 0.34,-1.83 ± 0.22
AAUAAGCAAUAUUACGACUU,-0.182 ± 0.065,0.451 ± 0.094
AGACAGCAAUAUUACGUUAA,-3.26 ± 0.14,-1.27 ± 0.087
ACGAAGCAAUAUUACGCGUG,-1.13 ± 0.051,-0.442 ± 0.074
UGGCAGCAAUAUUACGAGCA,-0.315 ± 0.098,-0.218 ± 0.12
UCGUAGCAAUAUUACGGACU,-3.21 ± 0.31,-0.974 ± 0.21
UCACAGCAAUAUUACGACUA,-1.21 ± 0.14,-0.431 ± 0.12
CCCGAGCAAUAUUACGUGGA,-3.08 ± 0.21,-2.81 ± 0.22
UUGAAGCAAUAUUACGACCU,0.0483 ± 0.11,0.587 ± 0.14
UCGUAGCAAUAUUACGUAAU,-2.47 ± 0.14,-1.78 ± 0.17
CAGCAGCAAUAUUACGAGAA,,-3.16 ± 0.37
GUCCAGCAAUAUUACGCCAA,-2.63 ± 0.18,-2.72 ± 0.16
GCGAAGCAAUAUUACGUUCA,-1.03 ± 0.13,-0.809 ± 0.16
GACCAGCAAUAUUACGCAUA,-0.474 ± 0.058,-0.452 ± 0.074
UGCCAGCAAUAUUACGUAUG,-1.2 ± 0.069,-0.775 ± 0.095
GAUCAGCAAUAUUACGUCAA,-1.01 ± 0.1,-0.615 ± 0.14
AGUUAGCAAUAUUACGUUAG,-3.45 ± 0.23,-2.72 ± 0.3
UUCGAGCAAUAUUACGCGUU,-1.87 ± 0.22,-1.88 ± 0.27
CGUGAGCAAUAUUACGCCCU,-3.26 ± 0.23,-1.98 ± 0.24

Sequence,self-splicing fitness (ln) (30 °C),self-splicing fitness (ln) (37 °C)
CGGAAGCAAUAUUACGGAGC,-2.75 ± 0.26,-1.88 ± 0.36
GCCUAGCAAUAUUACGGUGC,-2.59 ± 0.15,-1.48 ± 0.14
AAAUAGCAAUAUUACGCCCG,-0.812 ± 0.19,0.00909 ± 0.26
AUGCAGCAAUAUUACGGGAC,-2.82 ± 0.17,-2.74 ± 0.19
CCAGAGCAAUAUUACGAGGG,-4.31 ± 0.39,-2.39 ± 0.41
GAUGAGCAAUAUUACGCUCG,-3.02 ± 0.3,-2.75 ± 0.38
CCCCAGCAAUAUUACGAUUC,-3.81 ± 0.2,-2.46 ± 0.23
GGGCAGCAAUAUUACGCGCC,-3.31 ± 0.18,-2.82 ± 0.28
UGACAGCAAUAUUACGUAAC,-4.4 ± 0.46,-2.38 ± 0.19
AGGUAGCAAUAUUACGAUAC,-2.318 ± 0.021,-1.16 ± 0.037
CGGGAGCAAUAUUACGCGGA,-2.82 ± 0.23,-2.93 ± 0.28
UAGAAGCAAUAUUACGACAA,-0.512 ± 0.1,-0.213 ± 0.11
GCCGAGCAAUAUUACGGCCG,,-1.7 ± 0.47
AGUUAGCAAUAUUACGGCCG,-0.855 ± 0.21,-0.628 ± 0.3
UGACAGCAAUAUUACGCCAC,-3.66 ± 0.32,-1.43 ± 0.27
AUUAAGCAAUAUUACGGGCU,-1.31 ± 0.13,-1.47 ± 0.17
GCCAAGCAAUAUUACGUUUC,-2.86 ± 0.18,-0.805 ± 0.12
AUAAAGCAAUAUUACGUUUU,-2.37 ± 0.097,-1.11 ± 0.12
CCCAAGCAAUAUUACGUGGA,-0.971 ± 0.052,-0.376 ± 0.061
GUCAAGCAAUAUUACGUCCA,-2.58 ± 0.25,-0.387 ± 0.12
UUCUAGCAAUAUUACGUCCG,-1.45 ± 0.25,-0.81 ± 0.31
CCGUAGCAAUAUUACGCCUA,-3.02 ± 0.34,-2.11 ± 0.27
GUAGAGCAAUAUUACGGAGC,-0.91 ± 0.14,-0.327 ± 0.2
ACGAAGCAAUAUUACGCGGA,-1.96 ± 0.17,-1.33 ± 0.13
